Data reported in the supplement of paper PMC9170038.

Test system: MS2 coat protein
Experiment: apparent KD of MS2 coat protein; designed switch direction (-1 OFF switch, 1 ON switch): -1; higher = weaker reporter binding
In short: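 Designed RNA switches were transcribed on Illumina chips by stalled E. coli RNA polymerase and titrated with SNAP-549-labelled MS2 coat protein from 0.7 or 1.5 nM, doubling to 3 µM. Step length ran from 0.8–1.5 h at the lowest concentration to 10–20 min at the highest. The apparent KD is the median over clusters for each design, from curve-fitted normalised cluster fluorescence.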

[1] = Eterna round: R95, input ligand: FMN 200 uM
[2] = Eterna round: R95, input ligand: microRNA oligo, concentration not stated
[3] = Eterna round: R95, input ligand: none
[4] = input ligand: microRNA oligo, concentration not stated

AUAUAGCGAGGAUAUACAUGAGGAUCACCCAUGUGGUAGUAGAUACAGUAGAGAUAGAGUAGAAGGCGCUAUGA [EX3 #7] (Eterna round: R97, puzzle: Exclusion 3)
apparent KD of MS2 coat protein (input ligand: FMN 200 uM): 0.416 µM | apparent KD of MS2 coat protein (input ligand: none): 0.0792 µM

AGAAAUGCCCAUGGCCACAAGCUUUUUGCUUGUCUUACUACAUGAGGAUCACCCAUGUACCAUGGGCUCCUGAUAAU [Anxemaes] (puzzle: Sensor v3, turn-off variant 2)
apparent KD of MS2 coat protein [1]: 0.0138 µM | apparent KD of MS2 coat protein [2]: 0.00975 µM | apparent KD of MS2 coat protein [3]: 0.0104 µM

AUAUACGGAGGAUAUACUUGAGGAUCACCCAAGUGGAGUCCCGUUUGGGCGGUAAAUAGUAGAAGGCCGACCCA [jl-ex3-4.43 ViennaUCT mod] (Eterna round: R97, puzzle: Exclusion 3)
apparent KD of MS2 coat protein (input ligand: FMN 200 uM): 0.0141 µM | apparent KD of MS2 coat protein (input ligand: none): 0.0165 µM

CAGUACUGAGGAUAUACAUGAGGAUCACCCAUGUGUCCUAUAUUAGGAAACUAGGUAUGUAGAAGGCAGUACUG [Omei Ex3 Mod of Eli 4.27 v5] (Eterna round: R97, puzzle: Exclusion 3)
apparent KD of MS2 coat protein (input ligand: FMN 200 uM): 0.485 µM | apparent KD of MS2 coat protein (input ligand: none): 0.34 µM

UAUUAGCAAGCGAGGUCCCACAUGAGGAUCACCCAUGUGCUCGUCUUAUAAGGUACUGUGACGAAAGUCACGGUACC [Sensor 3, v1 - 91 v8] (Eterna round: R97, puzzle: Sensor, turn-off variant 1)
apparent KD of MS2 coat protein (input ligand: FMN 200 uM): 0.0147 µM | apparent KD of MS2 coat protein (input ligand: none): 0.0131 µM

GUCACAUGGGUGUAGAAUCACAUGAGGAUCACCCAUGUGACUAACAAGCUUUUUGCUCGUCUUAUGUCUAUGUGAAA [Stov1/17-A1] (Eterna round: R97, puzzle: Sensor, turn-off variant 1)
apparent KD of MS2 coat protein (input ligand: FMN 200 uM): 0.0474 µM | apparent KD of MS2 coat protein (input ligand: none): 0.0405 µM

AAGAUUCUCAUGAGCUGGAACAUGAGGAUCACCCAUGUGUGUUGCUUUUUGCUCAAGGAAUCCAUUUCGAUCUUAUA [Eternabot (L1) Solution 43] (Eterna round: R97, puzzle: Sensor, turn-off variant 1)
apparent KD of MS2 coat protein (input ligand: FMN 200 uM): 0.0629 µM | apparent KD of MS2 coat protein (input ligand: none): 0.0718 µM

AUAAGCUUUUAUAUCCUUAACAUGAGGAUCACCCAUGUUCGUCUUAUGAUGGUCUGAUCCCUGAGGAUCGGACCGUU [JL-sv1-2.04 Brourd Mod] (puzzle: Sensor v3, turn-off variant 1)
apparent KD of MS2 coat protein [1]: 0.031 µM | apparent KD of MS2 coat protein [2]: 0.0765 µM | apparent KD of MS2 coat protein [3]: 0.0299 µM

AUAAAGCAAGCAUGGUCCCACAUGAGGAUCACCCAUGUGUUCGUCUUAUAGGCUGCUGUGGCUUUUGCCUCGUUGGC [LRO Sensor-off var1-09 loose mod of D91 from Mat747] (Eterna round: R97, puzzle: Sensor, turn-off variant 1)
apparent KD of MS2 coat protein (input ligand: FMN 200 uM): 0.0416 µM | apparent KD of MS2 coat protein (input ligand: none): 0.046 µM

UAUUUAUAUGAAGGAUAUACUUAACAUGAGGAUCACCCAUGUGGUGUUGUGAGUGAGUGAGUUUAGUAGAAGGUCAAGUAUUUU [JMF's solution 53] (Eterna round: R96, puzzle: Exclusion NG 2)
apparent KD of MS2 coat protein (input ligand: FMN 200 uM): 0.844 µM | apparent KD of MS2 coat protein [4]: 0.378 µM | apparent KD of MS2 coat protein (input ligand: none): 0.456 µM

CUUUACAAGCUAAGAUCCUACAUGAGGAUCACCCAUGUGGUCCGGUGACGUGAGUCACCGGACUUAGCUCGUCUUGC [salish99_S_TOV1_R5_094] (Eterna round: R97, puzzle: Sensor, turn-off variant 1)
apparent KD of MS2 coat protein (input ligand: FMN 200 uM): 0.0312 µM | apparent KD of MS2 coat protein (input ligand: none): 0.0368 µM

AAUAACAGAGGAUAUACUGUUUUAUGUGUUUGUUGUUUUGAACAUGAGGAUCACCCAUGUAGAAGGCUGAAUGA [JMF 68] (puzzle: Exclusion 2)
apparent KD of MS2 coat protein [2]: 0.0242 µM

GAUCAGAUAGGAUAUACAGGCCCGUCUUUAUAUUGAUCCCGACAUGAGGAUCACCCAUGUAGAAGGAUCAGAUC [Mod 28 - Jieux - Exclusion 2] (Eterna round: R97, puzzle: Exclusion 2)
apparent KD of MS2 coat protein (input ligand: FMN 200 uM): 0.0233 µM | apparent KD of MS2 coat protein (input ligand: none): 0.0175 µM

CUCAGUGGUGAGGAUAUGCGCGCCCAAUGGACGGUAGAAGGUACUACAUGAGGAUCACCCAUGUAGCGAAGAUU [Eternabot (L1) Solution 49] (Eterna round: R97, puzzle: Exclusion 6)
apparent KD of MS2 coat protein (input ligand: FMN 200 uM): 0.0159 µM | apparent KD of MS2 coat protein (input ligand: none): 0.0158 µM

CUUUUGUGAGGAUAUUAGUAGUAAUUAAAUAAAAUUACUACUGAGAAGGCACAUGAGGAUCACCCAUGUUCCUC [salish99_ex4_r3_053] (puzzle: Exclusion 4)
apparent KD of MS2 coat protein [2]: 0.0359 µM

AUAAAUCAUGUAGGAUAUGCGUGGCGAAGCUAUGCAGAAGGACAUGAGGAUCACCCAUGUUCUUCCGUCUGCGUACAGACGGAA [Mat - Exclusion NG 1 - Mod of JL - D39] (Eterna round: R96, puzzle: Exclusion NG 1)
apparent KD of MS2 coat protein (input ligand: FMN 200 uM): 0.297 µM | apparent KD of MS2 coat protein [4]: 0.0285 µM | apparent KD of MS2 coat protein (input ligand: none): 0.0349 µM

CUGGUGUGAGGAUAUCAGGGCGCGCCCAAGGGCACGCCAAAUGAGAAGGCACAUGAGGAUCACCCAUGUGGGAC [Erzala] (puzzle: Exclusion 4)
apparent KD of MS2 coat protein [1]: 0.0456 µM | apparent KD of MS2 coat protein [2]: 0.0314 µM | apparent KD of MS2 coat protein [3]: 0.0353 µM

GCACGAAGUGUAGGAUAUCUGUGCGAUUAGCUCAGAGAAGGACACAUGAGGAUCACCCAUGUGUUCCACGGAAACGAAACGUGC [Eli exng1 - 053] (Eterna round: R96, puzzle: Exclusion NG 1)
apparent KD of MS2 coat protein (input ligand: FMN 200 uM): 0.00914 µM | apparent KD of MS2 coat protein [4]: 0.00847 µM | apparent KD of MS2 coat protein (input ligand: none): 0.0119 µM

AUUAGUAAUAAGGAUAUCACUAGCUUCGGCUAGUGAGAAGGUAUUACAUGAGGAUCACCCAUGUGAUUAAUUAA [E6/5-A1] (Eterna round: R97, puzzle: Exclusion 6)
apparent KD of MS2 coat protein (input ligand: FMN 200 uM): 0.446 µM | apparent KD of MS2 coat protein (input ligand: none): 0.0753 µM

UAUAUAUAGUAAGGAUAUGUAUAUAUGUUAUAAACAGAAGGUACUGACAUGAGGAUCACCCAUGUUUUAGUGUGGGCAUGUAGA [JMF's solution 59] (Eterna round: R96, puzzle: Exclusion NG 1)
apparent KD of MS2 coat protein [4]: 0.0538 µM

AAAUGACAUUAGGAUAUGUAACGCGGUUGCCGCACAGAAGGGAUGACUUGAGGAUCACCCAAGUGACCCAAGGA [Tixebion] (Eterna round: R97, puzzle: Exclusion 6)
apparent KD of MS2 coat protein (input ligand: FMN 200 uM): 0.0264 µM | apparent KD of MS2 coat protein (input ligand: none): 0.0282 µM

UUGUGAGGUGUAGGAUAUUGUUGUUGUUUUUAGCGAGAAGGACAUGAGGAUCACCCAUGUGUCGUGUUUUUUUUUUUUUUUUUU [simply blue] (Eterna round: R96, puzzle: Exclusion NG 1)
apparent KD of MS2 coat protein (input ligand: FMN 200 uM): 0.0789 µM | apparent KD of MS2 coat protein [4]: 0.0935 µM | apparent KD of MS2 coat protein (input ligand: none): 0.0591 µM

GGGCCCGGAGGAUAUACAUGAGGAUCACCCAUGUAGGGCCCGGGUAUUUUUGGGCCCUGUAGAAGGCCGGGCCC [-41.6, -38.7 kcal, A 19%, 5c,0] (Eterna round: R97, puzzle: Exclusion 3)
apparent KD of MS2 coat protein (input ligand: FMN 200 uM): 0.013 µM | apparent KD of MS2 coat protein (input ligand: none): 0.0126 µM

AGUACUAACACGAAAGUGUUAGUACUAUAAGCUUGUGAAACAUGAGGAUCACCCAUGUCCUCAUAAGCUCGUCUUAU [Mat - Sensor v3 - Turn-off var 2 - D102] (puzzle: Sensor v3, turn-off variant 2)
apparent KD of MS2 coat protein [1]: 0.0173 µM | apparent KD of MS2 coat protein [2]: 0.779 µM | apparent KD of MS2 coat protein [3]: 0.017 µM

AAUAACAGAGGAUAUACUGUUUUAUGUGUUUAUUAUUUUGAACAUGAGGAUCACCCAUGUAGAAGGCUGAAUGA [JMF 63] (puzzle: Exclusion 2)
apparent KD of MS2 coat protein [2]: 0.0276 µM

UUGUUACAUGAGGAUCACCCAUGUGAGGAUAUGGUUCAGUAAUGUAAUGUAAAGUACUCCAGAAGGCACAUGUU [1st #27] (Eterna round: R97, puzzle: Exclusion 1)
apparent KD of MS2 coat protein (input ligand: FMN 200 uM): 1.51 µM | apparent KD of MS2 coat protein (input ligand: none): 0.809 µM

ACAUGAGGAUCACCCAUGUGAAAACAAUGGCUGACACAGAGAUAGGAUAUAUGUGCAUAUCAAACAUAGAAGGGUCAUUACUGG [Deportation 86 - Jieux - Exclusion NG 3] (Eterna round: R96, puzzle: Exclusion NG 3)
apparent KD of MS2 coat protein (input ligand: FMN 200 uM): 0.0426 µM | apparent KD of MS2 coat protein [4]: 0.0402 µM | apparent KD of MS2 coat protein (input ligand: none): 0.0462 µM

GAUCCUUCUGUUAGGAUAUGCUUUGGGCUUCCGCAGCAGAAGGAACAUGAGGAUCACCCAUGUCAAAUAAAAUC [salish99_bmex4_r4_501] (Eterna round: R97, puzzle: Brourd's mod of Exclusion 4)
apparent KD of MS2 coat protein (input ligand: FMN 200 uM): 0.0255 µM | apparent KD of MS2 coat protein (input ligand: none): 0.0271 µM

AAAUGUUCGGAGGAUAUAGAACGAUUGUCCGAGCUAGAAGGCCGAACAUGAGGAUCACCCAUGUGUACCUGAAA [Atmare] (puzzle: Exclusion 6)
apparent KD of MS2 coat protein [1]: 0.256 µM | apparent KD of MS2 coat protein [2]: 0.0388 µM | apparent KD of MS2 coat protein [3]: 0.0412 µM

UUUUUGUGAGGAUAUUAGUAGUAAAUAAAUAAAAUUACUACUGAGAAGGCACAUGAGGAUCACCCAUGUUCCUC [salish99_ex4_r3_068] (puzzle: Exclusion 4)
apparent KD of MS2 coat protein [2]: 0.0332 µM

AGUACUAACACGAAAGUGUUAGUACUAUAAGUUUGUGUUACAUGAGGAUCACCCAUGUCCUCAUAAGCUCGUCUUGU [Mat - Sensor v3 - Turn-off var 2 - D95] (puzzle: Sensor v3, turn-off variant 2)
apparent KD of MS2 coat protein [1]: 0.911 µM | apparent KD of MS2 coat protein [2]: 0.199 µM | apparent KD of MS2 coat protein [3]: 0.627 µM

GAUGGCUUAGGAUAUACAUAGAAGAAUUGAACUUGGAUUAUACAUGAGGAUCACCCAUGUAGAAGGAGGUCAUC [ExGluten 4 - Jieux - Exclusion 2] (Eterna round: R97, puzzle: Exclusion 2)
apparent KD of MS2 coat protein (input ligand: FMN 200 uM): 0.053 µM | apparent KD of MS2 coat protein (input ligand: none): 0.0291 µM

UUUAUAUAGUAAGGAUAUGUAUUAUUUUUUACAACAGAAGGUACUGACAUGAGGAUCACCCAUGUUUUAGUGUGGGCAUGUAGU [JMF's solution 100] (Eterna round: R96, puzzle: Exclusion NG 1)
apparent KD of MS2 coat protein [4]: 0.217 µM

AGUUGUUGUUUCCGUUCUUACAUGAGGAUCACCCAUGUUUCUUGUCGUGCUCGCGUUGCUCGUCUGGCUACCUGUUG [salish99_TOv1_r3_068] (puzzle: Sensor v3, turn-off variant 1)
apparent KD of MS2 coat protein [1]: 0.0339 µM | apparent KD of MS2 coat protein [2]: 0.034 µM | apparent KD of MS2 coat protein [3]: 0.0438 µM
